Assay results published in publication PMC9064305.

Biological target: Human fibrillin-2 recombinant C-terminal half (rFBN2-C) (human) (UniProt P35556)
Test: SPR; FBN2-Ct amine-coupled to a CM5 chip (1700 RU), ADAMTS6 constructs as analytes; Biacore 3000, 25 °C, 10 mM Hepes pH 7.4, 0.15 M NaCl, 2 mM CaCl2, 0.005% or 0.05% P20, 30 μl/min; steady state affinity method

Sequence of Recombinant human ADAMTS6-4TSR (residues 840-1117) (Q9UKP5 840-1117): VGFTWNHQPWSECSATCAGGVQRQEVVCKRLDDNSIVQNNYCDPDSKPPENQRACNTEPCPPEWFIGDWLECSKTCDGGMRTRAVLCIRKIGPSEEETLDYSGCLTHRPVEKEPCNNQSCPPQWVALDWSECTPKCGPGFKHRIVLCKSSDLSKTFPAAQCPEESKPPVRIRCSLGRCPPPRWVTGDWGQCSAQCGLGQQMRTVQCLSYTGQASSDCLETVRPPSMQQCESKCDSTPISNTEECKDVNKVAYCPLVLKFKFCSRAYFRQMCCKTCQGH
Sequence of Recombinant human ADAMTS6-S4TSR (residues 717-1117) (Q9UKP5 717-1117): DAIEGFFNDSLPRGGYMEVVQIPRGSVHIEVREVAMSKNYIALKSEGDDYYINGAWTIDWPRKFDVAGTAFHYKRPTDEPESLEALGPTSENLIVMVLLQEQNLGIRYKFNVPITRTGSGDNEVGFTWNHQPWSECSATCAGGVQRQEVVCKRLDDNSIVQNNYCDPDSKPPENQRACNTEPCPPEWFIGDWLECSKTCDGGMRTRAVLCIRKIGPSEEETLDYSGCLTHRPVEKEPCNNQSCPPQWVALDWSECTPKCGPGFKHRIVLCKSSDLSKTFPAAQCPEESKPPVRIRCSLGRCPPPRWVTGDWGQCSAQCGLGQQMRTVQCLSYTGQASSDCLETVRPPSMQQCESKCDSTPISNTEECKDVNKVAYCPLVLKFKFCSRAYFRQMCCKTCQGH
Sequence of Recombinant human ADAMTS6-Ct (residues 558-1117) (Q9UKP5 558-1117): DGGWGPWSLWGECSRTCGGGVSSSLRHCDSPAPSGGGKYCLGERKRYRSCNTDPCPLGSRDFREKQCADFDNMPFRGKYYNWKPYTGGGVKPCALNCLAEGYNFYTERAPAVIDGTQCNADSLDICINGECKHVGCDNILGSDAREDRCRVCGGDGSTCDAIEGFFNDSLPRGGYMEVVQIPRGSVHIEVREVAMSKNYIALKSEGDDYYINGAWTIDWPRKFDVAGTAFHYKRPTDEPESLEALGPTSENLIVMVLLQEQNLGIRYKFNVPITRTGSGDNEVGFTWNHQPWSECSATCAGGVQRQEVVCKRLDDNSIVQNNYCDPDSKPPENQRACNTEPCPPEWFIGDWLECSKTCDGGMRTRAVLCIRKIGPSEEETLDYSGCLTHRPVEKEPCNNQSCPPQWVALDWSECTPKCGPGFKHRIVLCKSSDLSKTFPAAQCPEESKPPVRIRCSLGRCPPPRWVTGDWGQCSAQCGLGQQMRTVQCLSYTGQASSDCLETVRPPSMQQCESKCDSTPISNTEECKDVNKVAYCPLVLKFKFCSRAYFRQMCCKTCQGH

Kd | Substance
122 nM | Recombinant human ADAMTS6-4TSR (residues 840-1117) (from UniProt Q9UKP5 840-1117) (domain or fragment)
436 nM | Recombinant human ADAMTS6-Ct (residues 558-1117) (from UniProt Q9UKP5 558-1117) (domain or fragment)
114 nM | Recombinant human ADAMTS6-S4TSR (residues 717-1117) (from UniProt Q9UKP5 717-1117) (domain or fragment)
